Experiment: PVA hydrogel durability in phosphate buffered saline pH 7.4, integrity checked by periodic inversion
Format: physicochemical
Details: additive at 10%; 4% borate; PBS pH 7.4, room temperature
Protocol: The effect of the PVA (99% hydrolysis rate; average molecular weight 100K) concentration on gel durability was evaluated by first aliquotting 0.2 mL of a 4% borate solution into bottom of 14 mL tube. Then 1.8 mL of various PVA solutions of 2-5% concentrations were added by vigorous injection through a 3 mL syringe with an 18G needle. Three tubes were prepared for of each concentration and cured at room temperature for one hour to insure complete polymerization. 8 mL of phosphate buffered saline, pH 7.4, were added to each tube, covered and incubated at room temperature. The integrity of the gels was checked by periodic inversion.
The effect of additives on the durability of the PVA gel (99% hydrolysis rate; average molecular weight 100K) was evaluated by first aliquotting 0.2 mL of a 4% borate solution into bottom of 14 mL tube. Then 1.8 mL of PVA (5%) and additive containing solutions of 2-5% concentrations were added by vigorous injection through a 3 mL syringe with an 18G needle. Three tubes were prepared for of each concentration and cured at room temperature for one hour to insure complete polymerization. 8 mL of phosphate buffered saline, pH 7.4, were added to each tube, covered and incubated at room temperature. The integrity of the gels was checked by periodic inversion. […]

Substance: albumin
- Effect of additive on durability of 5% PVA hydrogels: increase the durability
